Assay results reported in paper PMC4821239, “Molecular architecture of the Dam1 complex–microtubule interaction” (Open Biology, 2016).

B1: Dad4 (natural protein, budding yeast, UniProt P69851 1-72, looked up)
chain: MENPHEQVQANILSRIIGNVKRLNESVAILNQELVTINNRNKNLEIMGAICDNYHSSVQFNLEATNNKKPPL
notes: Dad4, subunit of the budding yeast Dam1 complex; Subunit inside the recombinant 10-subunit complex; source: expressed and purified as part of the Dam1 complex as described [3]

What was measured:
[1] = biological target: T1, Dam1 (budding yeast, UniProt P53267 1-343); assay: cross-linking; BS3, Dam1 complex at 0.3 mg/ml in BRB80, room temperature 40-60 min, digested in solution, mass spectrometry; some links may be between oligomerizing complexes; details: both partners purified
T1 construct: Dam1, subunit of the budding yeast Dam1 complex; Subunit inside the recombinant 10-subunit complex; also called Dam1 subunit; source: expressed and purified as part of the Dam1 complex as described [3]
T1 sequence (looked up): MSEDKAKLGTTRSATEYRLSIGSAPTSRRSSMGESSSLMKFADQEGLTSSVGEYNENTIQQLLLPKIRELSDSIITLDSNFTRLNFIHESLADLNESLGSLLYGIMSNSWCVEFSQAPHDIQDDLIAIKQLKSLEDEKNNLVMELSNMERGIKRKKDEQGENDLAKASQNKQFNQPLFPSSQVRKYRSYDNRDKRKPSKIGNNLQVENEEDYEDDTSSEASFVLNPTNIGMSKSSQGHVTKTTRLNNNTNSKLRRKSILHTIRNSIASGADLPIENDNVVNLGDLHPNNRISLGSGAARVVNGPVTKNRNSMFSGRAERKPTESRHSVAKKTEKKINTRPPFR

[2] = biological target: T2, Spc34 (budding yeast, UniProt P36131 1-295); assay: as above; details: both partners purified
T2 construct: Spc34, subunit of the budding yeast Dam1 complex; Subunit inside the recombinant 10-subunit complex; source: expressed and purified as part of the Dam1 complex as described [3]
T2 sequence (looked up): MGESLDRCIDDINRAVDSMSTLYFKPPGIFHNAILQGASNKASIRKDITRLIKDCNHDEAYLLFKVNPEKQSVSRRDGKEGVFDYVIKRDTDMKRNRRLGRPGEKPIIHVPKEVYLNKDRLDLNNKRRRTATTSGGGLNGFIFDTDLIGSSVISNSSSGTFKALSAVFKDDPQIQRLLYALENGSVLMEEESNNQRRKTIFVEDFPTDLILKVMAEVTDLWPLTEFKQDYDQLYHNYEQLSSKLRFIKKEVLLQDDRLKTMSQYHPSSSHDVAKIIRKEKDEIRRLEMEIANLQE

[3] = biological target: T3, Spc19 (budding yeast, UniProt Q03954 1-165); assay: as above; details: both partners purified
T3 construct: Spc19, subunit of the budding yeast Dam1 complex; Subunit inside the recombinant 10-subunit complex; also called Sp19; source: expressed and purified as part of the Dam1 complex as described [3]
T3 sequence (looked up): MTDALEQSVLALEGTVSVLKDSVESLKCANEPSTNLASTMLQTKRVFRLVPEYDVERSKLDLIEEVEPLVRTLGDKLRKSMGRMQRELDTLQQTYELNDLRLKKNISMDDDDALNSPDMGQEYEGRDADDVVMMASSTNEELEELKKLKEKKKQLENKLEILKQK

[4] = biological target: T4, Dad2 (budding yeast, UniProt P36162 1-133); assay: cross-linking; BS3, Dam1 complex at 0.05 mg/ml in solution; cross-linked species (approx. 110, 220 and 440 kDa) separated by SDS-PAGE, bands cut out, in-gel trypsin digestion, mass spectrometry; details: both partners purified
T4 construct: Dad2, subunit of the budding yeast Dam1 complex; Subunit inside the recombinant 10-subunit complex; source: expressed and purified as part of the Dam1 complex as described [3]
T4 sequence (looked up): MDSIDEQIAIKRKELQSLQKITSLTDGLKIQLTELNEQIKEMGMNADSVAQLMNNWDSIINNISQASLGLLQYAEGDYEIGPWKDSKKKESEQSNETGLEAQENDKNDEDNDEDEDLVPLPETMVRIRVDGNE

[5] = biological target: T5, Ask1 (budding yeast, UniProt P35734 1-292); assay: cross-linking; EDC with Sulfo-NHS, Dam1 complex assembled on taxol-stabilized microtubules in BRB80, pellet washed, room temperature 1 h, digested in solution, mass spectrometry; details: both partners purified
T5 construct: Ask1, subunit of the budding yeast Dam1 complex; Subunit inside the recombinant 10-subunit complex; source: expressed and purified as part of the Dam1 complex as described [3]
T5 sequence (looked up): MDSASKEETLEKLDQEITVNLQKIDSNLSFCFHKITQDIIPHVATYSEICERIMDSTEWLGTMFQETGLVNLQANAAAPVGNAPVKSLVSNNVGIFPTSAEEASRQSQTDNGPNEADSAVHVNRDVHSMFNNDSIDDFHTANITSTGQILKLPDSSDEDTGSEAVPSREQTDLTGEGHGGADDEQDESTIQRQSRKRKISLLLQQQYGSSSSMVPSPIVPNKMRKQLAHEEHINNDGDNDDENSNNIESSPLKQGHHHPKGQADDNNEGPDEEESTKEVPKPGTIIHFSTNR

[6] = biological target: T4, Dad2; assay: affinity purification with mass spectrometry; mutant Dam1 complexes purified by the His tag on Hsk3 (Ni-NTA), then Superose 6 size-exclusion chromatography; proteins identified by mass spectrometry; details: partners not purified
[7] = biological target: B1; assay: as above; details: partners not purified

Measured: binding result

B1
not listed: [6] | [7]
binds: all other assays above

B2: Hsk3 (natural protein, budding yeast, UniProt P69852 1-69, looked up)
chain: MNANKQRQYNQLAHELRELQTNLQETTKQLDIMSKQCNENLVGQLGKVHGSWLIGSYIYYMEQMLGKTQ
notes: Hsk3, subunit of the budding yeast Dam1 complex; Subunit inside the recombinant 10-subunit complex; also called his-tagged Hsk3; source: expressed and purified as part of the Dam1 complex as described [3]; mutant complexes by Ni-NTA and Superose 6
binds: [1] | [6] | [7]
